Experimental data: the DeepSol protein solubility set

Assay: soluble on expression in E. coli; label from the status in PepcDB or PDB records

Row | Sequence | soluble on expression in E. coli
1 | MGHHHHHHSHMPLTSAFRAVDNDPGIIVWRIEKMELALVPVSAHGNFYEGDCYVILSTRRVASLLSQDIHFWIGKDSSQDEQSCAAIYTTQLDDYLGGSPVQHREVQYHESDTFRGYFKQGIIYKQGGVASGMKHVETNTYDVKRLLHVKGKRNIRATEVEMSWDSFNRGDVFLLDLGKVIIQWNGPESNSGERLKAMLLAKDIRDRERGGRAEIGVIEGDKEAASPELMKVLQDTLGRRSIIKPTVPDEIID | soluble
2 | GPGSMSIHQTKVCSVNEPLSNPDDSALEYCVEAQSPVNRTTSTWEFRSKLFPHAFAAVLDTDLSESETTQRELAEWTRKRCRNYERQGDILRSQLGVLVSSGAANGKRSDADDGDDEAFLVGLGEWSLQESSSQYLNSAKKKKCHRQLRCKDSYESALLLERQWSERHAVSLKHSCMKGAHPTPAAQNFELGCAKDLCRDASSVEIHSITPAASVVAAEKTRSVTACEPPTEQERKKNRGVASEHEGTQNFAEHLVVQYFIPDGSEAESGKSSNDTRGGACGRGLYSMPLSVFRYHYPQLLLDFLLQHSVVMESS | not soluble
3 | MTKISKIIDELNNQQADAAWITTPLNVYYFTGYRSEPHERLFALLIKKDGKQVLFCPKMEVEEVKASPFTGEIVGYLDTENPFSLYPQTINKLLIESEHLTVARQKQLISGFNVNSFGDVDLTIKQLRNIKSEDEISKIRKAAELADKCIEIGVSYLKEGVTECEVVNHIEQTIKQYGVNEMSFDTMVLFGDHAASPHGTPGDRRLKSNEYVLFDLGVIYEHYCSDMTRTIKFGEPSKEAQEIYNIVLEAETSAIQAIKPGIPLKDIDHIARNIISEKGYGEYFPHRLGHGLGLQEHEYQDVSSTNSNLLEAGMVITIEPGIYVPGVAGVRIEDDILVTNEGYEVLTHYEK | not soluble
4 | AHHHHHHASAKWVCKICGYIYDEDAGDPDNGISPGTKFEELPDDWVCPICGAPKSEFEKLEDGSEKVDRIIQMEIGRINSHLPKARKSLCELLKEDSPSIELRDGSLHYFRRSELEFLKTLAGEEACLVKLPIILELSTLDRGYFVVRGRGEVRVIKKLLELSEDIYLEENTVRLPRYYLPTIRRKLPTTTVYAFITEW | soluble
5 | MANSSVELRVSEAYPRDVGRKIVRIDRQTAARLGVEVGDFVKVSKGDRSVVAVVWPLRPDDEGRGIIRMDGYLRAALGVTVGDTVTVEKAEKVEPASKVVLAPTEPIRFGRDFVEYVKEFLLRKPISRGETIIVPVLEGLPLVVVSTQPAHFVYVTEATEVEIREKPVREEIERLRGVPKVTWEDIGDLEEAKERIREIVELPMKHPEIFKHLGIEPPKGILLYGPPGTGKTLLAKALANEIGAYFISINGPEIMSKYYGESEQRLREIFKEAEENAPSIIFIDEIDAIAPKREEVTGEVEKRVVAQLLTLMDGLKERGRVIVIGATNRPDAIDPALRRPGRFDREIEIRPPDKRARAEILKVHTRNMPLAEDVDLDKLAEMTHGYTGADLAALAKEAAMAALRRFIREGKINFEAKEIPATVLKELKVTMKDFMEAMKMIRPTLIREIYVEVPEVRWSDIGGLEEAKQALREAVEWPLKHPEIFEKMGIRPPRGVLLFGPPGTGKTLLAKAVATESGANFIAVRGPEILSKWVGESERAIRKIFERARQAAPAVVFFDEIDAIAPARGARFDTSGVTDRIVNQMLAEMDGIQPLSNVVVIGATNRPDILDPALLRPGRFDRLIYVPPPDKEARKEIFKIHTKKVPLGEDVDLEKLAEMTEGYTGADIEAVVREAVMAKLREKLEVGKVEMRHFLEALKKVPPSLTKEDILRYERLAKELKKLTLG | soluble
6 | MIMALSSFGKILTVLDLFSVHRPIINVDIICEELALSKPTGYRYLKELVSSEILQRISGTSGDYTLGPKIAVMDYISRTTDPIVQMSSPFMRDIAERTELCCLLTHLNRDYCIDVHHEVFRNADLLSYGRGCPRPVYMGSSPKVIMAHLPKRQIQDYYQRFSRQLAEVDFAHDEESFLIRMKKIKKDGYYISHGELNPDVTGLSVPIKFSHTKESPMALTLVASKNRFEFINIDKLIEILQANVIHIEQKSLALIQIEKSLH | not soluble
7 | MAHHHHHHMLMVPMKFARAHLRRLHALQPTPTFAIECSLPFLCAWRAMKHRSLAPDDPFGERSTFSDPSDGLFAAWSGVDFNAFADAASSDEVRTAHFGPEWSRFATVGRLSVKIMREQGTPGVASAVSSKGGNKVLPRPPTAEELHSRELQARRKALEGNYATYEQYVMKELGIEDGGNEDEHMEEEMDDATEVANASEESMPLPHFMVERGEGQAHANDTNKQESTNGKPLLRTREGLQVPEPLMQMILDALGEPHGDRHLPRSDPLHWNTEVVILWVRKLEAARFALVSAAGTGEASLLEAPLMEDPSMHEAFRMARTNGKFLLHHTVPNTMFQVMRRWYLRRQEIALTFMKERQEMKNTTSISKDDVNDATFKSALEAGRAKLDELAAKVTPILIQETISQCYPYCH | not soluble
8 | MCGIVGYIGYDNAKELLLKGLEKLEYRGYDSAGIAVVNDDNTTVFKEKGRIAELRKVADSSDFDGPVGIGHTRWATHGVPNHENSHPHQSSNGRFTLVHNGVIENYEELKGEYLQGVSFISETDTEVIVQLVEYFSNQGLSTEEAFTKVVSLLHGSYALGLLDAEDKDTIYVAKNKSPLLLGVGEGFNVIASDALAMLQVTSEYKEIHDHEIVIVKKDEVIIKDADGNVVERDSYIAEIDASDAEKGVYAHYMLKEIHEQPAVMRRIIQEYQDAEGNLKIDQDIINDVKEADRIYVIAAGTSYHAGLVGKEFLEKWAGVPTEVHVASEFVYNMPLLSEKPLFVYISQSGETADSRAVLVETNKLGHKSLTITNVAGSTLSREADHTLLLHAGPEIAVASTKAYTAQIAVLSILSQIVAKEHGREADIDLLRELAKVTTAIEAIVDDAPIMEQIATDFLETTRNAFFIGRTIDYNVSLEGALKLKEISYIQAEGFAGGELKHGTIALIEEGTPVVGLATQEKVNLSIRGNVKEVVARGAHPCIISMEGLEKEGDTYVIPHVHELLTPLVSVVALQLISYYAALHRDLDVDKPRNLAKSVTVE | not soluble
9 | MGHHHHHHSHMKFEAFKIVPVGYIRKEKNVFIEILPEFREGMEGLREGDWIKLILWFHKSDTPELRRILKVHPHGNPENPLTGVFATRSPFRPNPYTVKVHKIEGNRIYIDWIDAEDGTPVSDIKIFPERYDCPKENYQSTSRLKS | soluble
10 | MEIVLTREKMEITATPIRTRYIDRNEDFVSESIHSLKKEIENGFEIKNGDFLVVSEKFIATSEDNFVDESLADPKFWAYFTYYLSKYGWGYVLGPLLGTRGDRVKNLRKMPKTETLKHKQIVIENVGLIYALKPASEGGIDLTNVPGTYASLLPENPEYSAKKLHKKIKEDLDLDLTVMVIDTDATYRFFNWYVTALPIAVEGITSKIGVFGYILGKFGKILNQGGLCGATPLAITGNENYKKYPLKTLLYIANLSDTSQVPYTKSIHDLMKKYNTFEITVDVLKEMEHSPLVIVKCE | not soluble
11 | AIALTTNASSKIFSKASTAELVGHTRKVHCLSWNPKGGLLGSGGVDCVARIWDVEKLQQKAELEGHTSSIEQLKWDPTANVFFVSASLDHKVLFWDLRARNSEPVASVETQGENINLAWSQDGVYCAVGDKDDNLSFIDVRKFDFFERFQFAEEVNEFKWSPSGPFFFMTLGKEVLVFRWPTMEQQLRLQVHADRCYCLEFDRSGRYFALGGADSIISLWETEYMLCTWTVDRLEYPIRTISFSHDGQFIAAGSEDSVIDISDILNGRQTYALGVKGATNVVAWHPSRHLLAYATEEEYSRDGVAIHLYGTISKDNI | soluble
12 | AAASMDAVTAEKFSPASFLDKKETGVLHFVKYHGLGNDFILVDNRDSSEPKITQEQAAKLCDRNFGVGADGVIFAMPGVNGTDYAMRIFNSDGSEPEMCGNGVRCFARFIAELENLQGKHSFTIHTGAGLIVPEIQDDGQVKVDMGTPILKAQDVPTKLSGNKGEAVVEAELVVDGVSWNVTCVSMGNPHCITFGKKGGPNLKVDDLNLPEIGPKFEHHEMFPARTNTEFVEVLSRSHLKMRVWERGAGATLACGTGACALVVAAVLEGRADRKCTVDLPGGPLEIEWKQEDNHIYMTGPAEAVFYGSALLHHHHHH | soluble
13 | SLLLKMDAFQDRLGTRGMLVRKGDHDETKVLPAVPVPQVRAANLPAAQAGDARIGTLPALFQALRASLPADEECNGLQAGDAQEPLTVTRLSTDKLLVSTDCWMGAYNVGTGVRVLNARAPFSCQPW | not soluble
14 | MELKEGDEILNVAGPLGNPAPMEKFGKILAIGAYVGIAEVYPIAKAWQEIGNDVTTLHVTFEPMVILKDYFEKAVSRHIVEPVKIDQEKSFQENTKNVTKALTAKVKELLDNENWDLVFMVGPPGDQKAVFEVVKKYGIPMKVDLHPIMLEHHHHHH | not soluble
15 | QLSAGCGELSPQIGGGWLWSSMHRSGRYGTQQQRAGSKTAGPPCQWSRMASEGTNIPSPVVRQIDKQFLICSICLERYKNPKVLPCLHTFCERCLQNYIPAHSLTLSCPVCRQTSILPEKGVAALQNNFFITNLMDVLQRTPGSNAEESSILETVTAVAAGKPLSCPNHDGNVMEFYCQSCETAMCRECTEGEHAEHPTVPLKDVVEQHKASLQVQLDAVNKRLPEIDSALQFISEIIHQLTNQKASIVDDIHSTFDELQKTLNVRKSVLLMELEVNYGLKHKVLQSQLDTLLQGQESIKSCSNFTAQALNHGTETEVLLVKKQMSEKLNELADQDFPLHPRENDQLDFIVETEGLKKSIHNLGTILTTNAVASETVATGEGLRQTIIGQPMSVTITTKDKDGELCKTGNAYLTAELSTPDGSVADGEILDNKNGTYEFLYTVQKEGDFTLSLRLYDQHIRGSPFKLKVIRSADVSPTTEGVKRRVKSPGSGHVKQKAVKRPASMYSTGKRKENPIEDDLIFRVGTKGRNKGEFTNLQGVAASTNGKILIADSNNQCVQIFSNDGQFKSRFGIRGRSPGQLQRPTGVAVHPSGDIIIADYDNKWVSIFSSDGKFKTKIGSGKLMGPKGVSVDRNGHIIVVDNKACCVFIFQPNGKIVTRFGSRGNGDRQFAGPHFAAVNSNNEIIITDFHNHSVKVFNQEGEFMLKFGSNGEGNGQFNAPTGVAVDSNGNIIVADWGNSRIQVFDGSGSFLSYINTSADPLYGPQGLALTSDGHVVVADSGNHCFKVYRYLQ | soluble
16 | MPTETLSSVFVLVVLLPTSGLLPRTEAAFVASSSIEYCERSSNGEPFPCEKKMVVGLSVGSEQTIEAEEVVLLREAVDKTGDEKGKRVEFEPIRLVTTKSPVQYRYPIYYIRNFNAKPYEQRLRTSASSWCDDSSNPGSATCGVARDRRGDVIPYSQGFCCLCGACALSGICNPTSRSVGTCSVTGDTGMASCLRFSDLWYGGYTIGRGVVWYELQVKLSSGNNSTGGGSTGSKEFTMSLGPDKLTATSTEFGASARLIGDFAPPEMPLDLSGKMLFIPSEPRGHERVGAGYNEWIIVDTHLVSIRGTECNKVGVSYEGFATQGSRCDAYPGACLANQLEDYRDRDLEAETKGQQGKYMARFFAPFGFDPLANASAPAVAYQVTGTLSTMVTITISADKLNFVLSVSSGVVVGATVSGKVVHSYSRGSTITVTVLNTGDIEAQYTVVVGECTVNVQPMVAQTVYIPLQGSAQRRFTLIVQDSIEGEAKCNATLRNARGDVVDTRAISFGVKALKPSNGSQGGSTFENGRYSEEAKGESQCQQCSWFNLLCFLRHRCWWQPLVYVLPSVTLLMLLRRFLESQSRSRPRPQLHPDEHELRNTGAISSCHLPRAPYVNTVH | not soluble
17 | MGHHHHHHSHMLNSTGELEFSNEEDPEIISQLTSLPLSGGKSSAGVPEKTGYPDSVYVMAANIFQGIRIEKSAQKVLIKYGNEPLRSLSESEDQSFQRLSYELAFSALKYQDILETILIDSCIFPSTTTPDHLSSLIIVMLYDFQDRKFQTRVLSDNEEPISEVQEVENLLNSFKIKLAAALARCRIKHDALSIYHILPETVRKQELRASTLPLYAWINTCKISPEEVYNNLKRRGYNKVKSVLHIDDKVFAVDQHCYDVLIFPSHLKNDLINIDLFKDYKLIFQVN | not soluble
